The Human Domainome abundance scans (Beltran et al. 2025)
± gives the uncertainty stated by the source.

B1: Pituitary-specific positive transcription factor 1, residues 130 to 198; numbered along this chain, P28069 (parent)
chain: RELEKFANEFKVRRIKLGYTQTNVGEALAAVHGSEFSQTTICRFENLQLSFKNACKLKAILSKWLEEAE

Variants of: B1
Test: abundance fitness (aPCA) (normalised: wild type 0, dead -1); higher = more abundant; growth selection in yeast, the domain comes from the species named
Conditions: Homo sapiens
With RELEKFANEFKVRRIKLGYNQTNVGEALAAVHGSEFSQTTICRFENLQLSFKNACKLKAILSKWLEEAE [T20N] the abundance fitness was -0.384 ± 0.099. RELEKFANEFKVRRIKLGYTQTNVGEALAAVHGFEFSQTTICRFENLQLSFKNACKLKAILSKWLEEAE [S34F] showed an abundance fitness of -0.387 ± 0.13. With RELEKFANEFKVRRIKLGYTQTNVGEALAAVHGEEFSQTTICRFENLQLSFKNACKLKAILSKWLEEAE [S34E] the abundance fitness was 0.019 ± 0.055. For RELEKFANEFKVRRIKLGYTQTNVGEALAAVHGSEFSQTTICRFENLQLSFKNACKLKAILSKWLQEAE [E66Q], the abundance fitness was -0.193 ± 0.086. Work on RELEKFANEFKVRRIKLGYTQTNVGEALAAVHGSEFSQTTICRFENLQLSFKNACKLKAILSKWLDEAE [E66D] yielded an abundance fitness of -0.037 ± 0.085. With RELEKFANEFKVRRIKLGYTQTNVGEALAAVHGSEFSQTTICRFENLQLSFKNACKLKAILSKWLGEAE [E66G] the abundance fitness was -0.373 ± 0.07. Work on RELEKFANEFKVRRIKLGYTQTNVGEALAAVHGSEFSQTTICRFENLQLSFKNACKLKAILSKWLKEAE [E66K] yielded an abundance fitness of -0.296 ± 0.099. For RELEKFANEFKVRRIKLGYTQTNVGEALAAVHGSEFSQTTICRFENLQLSFKNACKLKAILSKWLYEAE [E66Y], the abundance fitness was -0.304 ± 0.12. RELEKFANEFKVRRIKLGYTQTNVGEALAAVHGSEFSQTTICLFENLQLSFKNACKLKAILSKWLEEAE [R43L] showed an abundance fitness of -0.181 ± 0.052. For RELEKFANEFKVRRIKLGYTQTNVGEALAAVHGSEFSQTTICRFENTQLSFKNACKLKAILSKWLEEAE [L47T], the abundance fitness was -0.667 ± 0.23. Work on RELEKFANEFKVRRIKLDYTQTNVGEALAAVHGSEFSQTTICRFENLQLSFKNACKLKAILSKWLEEAE [G18D] yielded an abundance fitness of -0.556 ± 0.15. RELEKFANEFKVRRIKLRYTQTNVGEALAAVHGSEFSQTTICRFENLQLSFKNACKLKAILSKWLEEAE [G18R] gave an abundance fitness of -0.84 ± 0.11. In the case of RELEKFANEFKVRRIKLCYTQTNVGEALAAVHGSEFSQTTICRFENLQLSFKNACKLKAILSKWLEEAE [G18C], the abundance fitness is reported as -0.688 ± 0.23. RELEKFANEFKVRRIKLNYTQTNVGEALAAVHGSEFSQTTICRFENLQLSFKNACKLKAILSKWLEEAE [G18N] showed an abundance fitness of -0.969 ± 0.37. RELEKFANEFKVRRIKLGYTQTNVGEALAAVHGSEFSQTTICRFENLQLSFKNACKLKACLSKWLEEAE [I60C] gave an abundance fitness of -0.365 ± 0.1. In the case of RELENFANEFKVRRIKLGYTQTNVGEALAAVHGSEFSQTTICRFENLQLSFKNACKLKAILSKWLEEAE [K5N], the abundance fitness is reported as -0.079 ± 0.056. RELEKFANEFKVRRIKLGYTQTNVGEALTAVHGSEFSQTTICRFENLQLSFKNACKLKAILSKWLEEAE [A29T] gave an abundance fitness of 0.063 ± 0.075. In the case of RELEKFANEFKVRRIKIGYTQTNVGEALAAVHGSEFSQTTICRFENLQLSFKNACKLKAILSKWLEEAE [L17I], the abundance fitness is reported as -0.709 ± 0.5. RELEKFANEFKVRRIKRGYTQTNVGEALAAVHGSEFSQTTICRFENLQLSFKNACKLKAILSKWLEEAE [L17R] gave an abundance fitness of -0.803 ± 0.11. Variant RELEKFANEFKVRRIKAGYTQTNVGEALAAVHGSEFSQTTICRFENLQLSFKNACKLKAILSKWLEEAE [L17A] has an abundance fitness of -0.401 ± 0.091. RELEKFANEFKVRRIKLGYTQTNVGEALAAVHGSEFSQTTIHRFENLQLSFKNACKLKAILSKWLEEAE [C42H] gave an abundance fitness of -0.001 ± 0.11. In the case of RELEKFANEFKVRRIKLGYTQTNVGEALAAVHGSEFSQTTICRFENLQLSFKNACKLKYILSKWLEEAE [A59Y], the abundance fitness is reported as -0.298 ± 0.099. Work on RELEKFANEFKVRRIKLGYTQTNIGEALAAVHGSEFSQTTICRFENLQLSFKNACKLKAILSKWLEEAE [V24I] yielded an abundance fitness of -0.545 ± 0.074. RELEKFANEFKVRRIKLGYTQTNVGEALAAVHGSEFSQTTICRFENLPLSFKNACKLKAILSKWLEEAE [Q48P] gave an abundance fitness of -0.506 ± 0.21. Work on RELEKFANEFKVRRIKLGYTQTNVGEALAAVHGSEFSQTTICRFENLVLSFKNACKLKAILSKWLEEAE [Q48V] yielded an abundance fitness of -0.574 ± 0.081. For RELEKFANAFKVRRIKLGYTQTNVGEALAAVHGSEFSQTTICRFENLQLSFKNACKLKAILSKWLEEAE [E9A], the abundance fitness was -0.156 ± 0.076. In the case of RELEKFANEWKVRRIKLGYTQTNVGEALAAVHGSEFSQTTICRFENLQLSFKNACKLKAILSKWLEEAE [F10W], the abundance fitness is reported as -0.961 ± 0.24. Variant RELEKFANEFKVRRIKLGYTQTNVGEALAAVHGSSFSQTTICRFENLQLSFKNACKLKAILSKWLEEAE [E35S] has an abundance fitness of -0.051 ± 0.058. RELEKFANEFKVRDIKLGYTQTNVGEALAAVHGSEFSQTTICRFENLQLSFKNACKLKAILSKWLEEAE [R14D] showed an abundance fitness of -0.725 ± 0.42. Work on RELEKFANEFKVREIKLGYTQTNVGEALAAVHGSEFSQTTICRFENLQLSFKNACKLKAILSKWLEEAE [R14E] yielded an abundance fitness of -0.952 ± 0.37. Variant RELEKFANEFKVRRIKLGYTQTNVGEALAAVHGSEFAQTTICRFENLQLSFKNACKLKAILSKWLEEAE [S37A] has an abundance fitness of -0.607 ± 0.076. RELEKFANEFKVRRIKLGYTQTNVGEALAAVHGSEFTQTTICRFENLQLSFKNACKLKAILSKWLEEAE [S37T] gave an abundance fitness of -0.063 ± 0.055. Work on RELEKFANEFKVRRIKLGYTQTNVGEALAAVHGSEFSQTTICRFENLQLSFKNACKLDAILSKWLEEAE [K58D] yielded an abundance fitness of -0.652 ± 0.26. In the case of RELEKFANEFKVRRIKLGYTQTNVGEALAAVHGSEFSQTTICRFENLQLSVKNACKLKAILSKWLEEAE [F51V], the abundance fitness is reported as 0.021 ± 0.057. With RELEKFANEFKVRRIKLGYTQTNVGEALAAVHGSEFSQTTICRFENLQLSCKNACKLKAILSKWLEEAE [F51C] the abundance fitness was -0.534 ± 0.13. Work on RELEKFANEFKVRRIKLGYTQTNVGEALAAVHGSENSQTTICRFENLQLSFKNACKLKAILSKWLEEAE [F36N] yielded an abundance fitness of -0.758 ± 0.49. In the case of RELEKFANEFKVRRIKLGYTQTNVGEAIAAVHGSEFSQTTICRFENLQLSFKNACKLKAILSKWLEEAE [L28I], the abundance fitness is reported as -0.276 ± 0.34. RELEKFANEFKVRRIKLGYTQTNVGEALAAVHGSEFSQTTICRFENLQLSFKNACKLKAILYKWLEEAE [S62Y] gave an abundance fitness of -0.585 ± 0.17. For RELEKFANEFKVRRIKLGYTQTNVGEALAAVHGSEFSQTTICRFENLQLSFKNACKLKAILIKWLEEAE [S62I], the abundance fitness was 0.001 ± 0.081.
